Measurements reported in publication doi:10.1101/2023.09.22.558821.

Target: murine CIZ1 C-terminal fragment C181 (terminal 181 amino-acids) (mouse)
Assay: SEC-MALS

## murine CIZ1 C-terminal fragment C181 (terminal 181 amino-acids) (domain or fragment)
  stoichiometry N: 2
